From US20230212305A1, “ANTI-ABCG2 ANTIBODIES AND USES THEREOF” (Kenjockety Biotechnology, Inc., priority 2020, published 2023)

T1: ABCG2 (Homo sapiens, UniProt Q9UNQ0)
T1 construct: expressed in transfected cells
T1 sequence (Q9UNQ0 1-655): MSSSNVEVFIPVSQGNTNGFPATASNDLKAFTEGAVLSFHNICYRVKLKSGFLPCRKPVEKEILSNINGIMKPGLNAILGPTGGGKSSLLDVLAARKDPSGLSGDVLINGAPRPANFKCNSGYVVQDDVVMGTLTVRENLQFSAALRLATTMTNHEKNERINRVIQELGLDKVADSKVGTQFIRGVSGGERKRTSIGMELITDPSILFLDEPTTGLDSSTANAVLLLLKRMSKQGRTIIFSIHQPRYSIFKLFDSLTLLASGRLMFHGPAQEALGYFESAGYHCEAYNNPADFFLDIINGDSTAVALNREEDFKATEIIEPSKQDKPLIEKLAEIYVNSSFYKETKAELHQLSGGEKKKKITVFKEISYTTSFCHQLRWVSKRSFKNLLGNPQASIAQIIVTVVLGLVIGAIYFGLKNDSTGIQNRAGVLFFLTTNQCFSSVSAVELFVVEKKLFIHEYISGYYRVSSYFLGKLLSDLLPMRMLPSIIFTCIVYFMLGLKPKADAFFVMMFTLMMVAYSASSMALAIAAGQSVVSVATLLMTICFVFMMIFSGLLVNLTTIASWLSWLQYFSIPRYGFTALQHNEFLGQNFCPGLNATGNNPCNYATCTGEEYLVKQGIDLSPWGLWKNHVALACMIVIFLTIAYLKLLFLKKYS


Tests used:
ABCG2 [1] = molecular target: T1, ABCG2; type: cell-based
Protocol: 293T_ABCG2_OX cells were washed several times and aliquoted into 96-well plates as 50 μl aliquots/well at a cell density of 2×10e6 cells per ml in phenol red-free DMEM. Cells were mixed with 50 μl antibodies or the small molecule inhibitors of ABCG2:-fumitremorgin C (FTC), or its tetracyclic analogue K0143, with a final concentration of 1 μM. Cells were then incubated in the presence of 2.5 μM Mitoxantrone 1 h at 37° C. The cells were subsequently washed twice and finally resuspended in […] PBS. Mitoxantrone fluorescence was measured using excitation at 635 nm and emission at 647 nm. Protocols was measuring efflux blockade are found in Szabo E, et al., PLoS One. 2018 Jan. 17; 13(1):e0190629; Deeken J F, et al., Mol Pharmacol. 2009 November; 76(5):946-56).

ABCG2 [2] = molecular target: T1, ABCG2; assay: Flow cytometry binding to 293T cells overexpressing human ABCG2 (293T_ABCG2_OX); set-up: key to Binding by FACS: binding=“+”; non-significant binding=“−”; conditions: for binding to 293T cells overexpressing human ABCG2: in words, FIGS. 7-11, 21; for Binding by FACS: 293T_ABCG2_OX cells
Protocol: (§1) Cell Binding Assays. Antibody binding to cells was evaluated by flow cytometry. 293T cells stably transfected to express human or cynomolgus ABCG2 (293T_ABCG2_OX) were washed once in flow cytometry buffer (PBS+2% FBS+0.02% sodium azide), resuspended at 2×10^6 cells/mL in flow cytometry buffer, and dispensed into 96-well microtiter plates at 0.1 mL/well. Recombinant antibodies were added to cells at 5 ug/mL for initial binding confirmation, or serially diluted from 100 ug/mL in flow cytometry buffer. After incubating cells on ice for 30 min, cells were washed twice with flow cytometry buffer. Bound antibody was detected with PE-labeled F(ab′)2 fragment goat anti-human IgG (Jackson ImmunoResearch) and evaluated on an Attune NxT flow cytometer. EC50 is calculated to be the concentration of antibody that gives half maximal response.

cynomolgus ABCG2 = assay: Flow cytometry binding to 293T cells overexpressing cynomolgus ABCG2; set-up: key to Cynomolgus ABCG2 binding: binding=“+”; non-significant binding=“−”; conditions: for binding to 293T cells overexpressing cynomolgus ABCG2: in words, FIGS. 7-11, 21
Protocol: as §1

Sequence of cynomolgus ABCG2 (as listed by the source): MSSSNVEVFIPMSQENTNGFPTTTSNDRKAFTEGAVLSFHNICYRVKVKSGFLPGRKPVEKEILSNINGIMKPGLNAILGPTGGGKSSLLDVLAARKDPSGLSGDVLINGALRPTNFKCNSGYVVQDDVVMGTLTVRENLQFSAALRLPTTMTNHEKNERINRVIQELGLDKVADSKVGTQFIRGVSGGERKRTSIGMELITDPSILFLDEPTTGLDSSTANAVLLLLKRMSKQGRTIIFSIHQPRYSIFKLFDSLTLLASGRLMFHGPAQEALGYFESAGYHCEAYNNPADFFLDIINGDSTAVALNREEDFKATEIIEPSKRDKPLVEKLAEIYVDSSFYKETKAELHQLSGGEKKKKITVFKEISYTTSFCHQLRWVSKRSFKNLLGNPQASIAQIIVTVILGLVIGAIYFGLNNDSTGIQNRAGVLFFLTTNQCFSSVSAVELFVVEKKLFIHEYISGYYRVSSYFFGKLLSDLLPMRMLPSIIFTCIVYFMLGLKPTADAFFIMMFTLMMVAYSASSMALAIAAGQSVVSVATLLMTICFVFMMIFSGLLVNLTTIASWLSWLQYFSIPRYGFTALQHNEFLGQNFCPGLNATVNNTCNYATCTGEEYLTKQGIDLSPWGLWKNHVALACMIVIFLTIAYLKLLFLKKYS

| Molecule | efflux inhibition activities and binding to human and cynomolgus ABCG2 of humanized G2.636 antibodies (ABCG2 [1]) | binding to 293T cells overexpressing human ABCG2 (ABCG2 [2]) | binding to 293T cells overexpressing cynomolgus ABCG2 (cynomolgus ABCG2) | Binding by FACS (ABCG2 [2]) | Cynomolgus ABCG2 binding (cynomolgus ABCG2) | Block Efflux (ABCG2 [1]) |
| --- | --- | --- | --- | --- | --- | --- |
| G2.636.hu47: humanized variant of the anti-ABCG2 antibody G2.636 (antibody, V domains shown) VH: EVQLVESGGGLVQPGGSLRLSCAASGFTFSRFYMAWVRQAPGKGLEWVAHISHGGDTTYYRDSVKGRFTISRDNSKNTLYLQMNSLRAEDTAVYYCTTSAAPWNYVMDGWGQGATVTVSS VL: DIQLTQSPSSLSASVGDRVTLTCKGSQNINNFLAWYQQKPGKAPKLLIYKTNSLHTGIPSRFSGSGSGTDYTLTISSLQPEDFATYYCYQYNNGYTFGQGTKLEIK | particularly good expression and activity |  |  |  |  |  |
| G2.640: Anti-G2 antibody raised in rats; VH SEQ ID NO:415, VL SEQ ID NO:416 (antibody, listed as Rattus norvegicus, V domains shown) VH: EVKLEESGPGLVQPSQTLSLTCTVSGFSLTSDGVSWVRQPPGKGLEWIAAISSGGSTYYNSALKSRLSISRDTSKSQVFLKMNSLQTEDTAIYFCTRDTYYGYNQIPFVYWGQGTLVTVSS VL: DIVIIQSPPSLSASLGDKVTISCQASQNIHRYIAWYQQKPGKAPRLLIRYTSTLESGTPSRFSGSGSGRDYSFSISNVESEDIASYYCLQYVNLWTFGGGTKLELK |  | did not show significant binding | did not show significant binding |  |  |  |
| G2.394 rat: anti-ABCG2 antibody raised in rat (antibody, V domains shown) VH: EVQLKESGPGLVQPSQTLSLTCTVSGFSLTDYTITWVRQPPGKGLEWIAATSVGGATHYNSPLKSRLSISGDTSKSQVFLKMNSLRTEDTAMYFCVRSGYYSTYMNWGRGTMVTVSS VL: DVVMTQTPPTFSATIGQSVSISCRSSQSLLHSSGNTFLSWLLQRPGQPPQLLIYLVSRLEFGVPNRFSGSGSGTDFTLKISGVEAEDLGVYYCVQSTHVMNTFGAGTKLEIK |  |  |  | + | + | − |
| G2.346 rat: anti-ABCG2 antibody raised in rat (antibody, V domains shown) VH: SVQWKESGPGLVQPSQTLSLTCTVSGFSLTSNGVSWVRQPPGKGLEWIAAISSGGSTYYNSGLKSRLSISRDTSKSQVFLKMNSLQTEDTAIYFCTRAGYYGYNPIWFTYWGQGTLVTVSS VL: DVVMTQTPPTLSATIGQSVSISCRSSQSLLHGSGNTYLNWLLQRPGQPPQILIYLVSRLESRVPKRFSGSGSGTDFTLKISGVEADDLGVYYCVQSTHAPFTFGSGTKLELK |  |  |  | + | + | − |
| G2.348 rat: anti-ABCG2 antibody raised in rat (antibody, V domains shown) VH: EVQLVESGPGLMQPSQTLSLTCTVSGFSLTSNGVSWVRQPPGKGLEWIATISSGGNTNYNSALKSRLSISRDTSKSQVFLKMNSLQTEDTAIYFCTRVGYYGYNPIWFAYWGQGTLVTVSS VL: DVVMTQTPPTLSATIGHSVSISCRSSQSLFHSSGNTYLSWFLQRPGQPPQLLIYLVSRLESRVPNRFSGSGSGTDFTLKISVLEAEDLGVYYCVQTTHAPFTFGSGTKLEIK |  |  |  | + | + | − |
| G2.757: anti-ABCG2 monoclonal antibody (antibody, V domains shown) VH: QVTLKESGPGILRPSHTLSLTCSFSGFSLTTYGICVSWIRQPSGKGLEWLANICWEDSKAYNPSLKNRLTISKDTSNNQVFLRIPSVDTADSAIYYCARVFNNYPFPYWGQGTLVTVSS VL: TQSPPSLSASLGDKVTITCQASQNINKYVAWYQQKPGKAPRLLIRYTSTLESGTPSRFSGSGSWRDYSFSISNVESEDIADYYCLQYVNLWTFGGGTKLELK |  | good binding affinity | good binding affinity |  |  |  |
| G2.247 mouse: anti-ABCG2 antibody raised in mouse (antibody, V domains shown) VH: EVRLQQSGAELVKPGASVKLSCKTSGFTFSNSYISWLKQKPRQSLEWIAWIYAGTGGTNYNQKFTGKAQLTVDTSSSTAYMQLSSLTSEDSAIYYCATYGNFLYAMDNWGQGTSVTVSS VL: DIVMTQSPASLSASVGETVTITCRASGNIHNYLAWYQQKQGKSPQLLVYNTKTLADGVPSRFSGSGSGTQYSLKINSLQPEDFGSYYCQHFWSTPWTFGGGTKLEIK |  |  |  | + | − | − |
| G2.252 mouse: anti-ABCG2 antibody raised in mouse (antibody, V domains shown) VH: EVQLQQSGAELVKPGASVKLSCKTSGFTFSNSYISWLKQKPRQSLEWIAWIYAGTGGTNYNQKFTGKAQLTVDTSSSTAYMQLSSLTSEDSAIYYCATYGNFLYAMDYWGQGTTLTVSS VL: EIVLTQSPASLSASVGETVTITCRASGNIHNYLAWYQQKQGKSPQLLVYNAKTLADGVPSRFSGSGSGTQYSLKINSLQPEDFGSYYCQHFWSTPWTFGGGTKLEIK |  |  |  | + | − | − |
| G2.257 mouse: anti-ABCG2 antibody raised in mouse (antibody, V domains shown) VH: EVQLQQSGPELVKPGASLKISCKTFGYSFTGYYMHWVKQSPEKSLEWIGKIVPSTGGTTYNQKFKAKATLTVDKSSFTAYMQLKSLTTEDSAVYYCAREKVYGYDVYYFDYWGQGTTLTVSS VL: DIQMTQTPSSLSASLGDRVTITCSTSQGVRSYLNWYQQKPDGSVKLLIYYTSSLHSGVPSRFSGSGSGTDYSLTISNLEPEDIATYYCQQYSKLPYTFGGGTKLELK |  |  |  | + | + | − |
| G2.302 Humanized: humanized version of anti-ABCG2 antibody G2.302 (antibody, V domains shown) VH: EIQLVQSGAEVKKPGASVKVSCKASGYTFTDYYINWVRQAPGQRLEWIGWIYPGNVNVKYNEKFKGRATLTVDTSASTGYMELSSLRSEDTAVYFCARSIGLRYFDNWGQGTLVTVSS VL: EKVLTQSPATLSLSPGERATLSCRASSSVHYMYWHQQKPGQSPRLWIYYTSNLAPGVPARFSGSGSGNDYTLTISSLEPEDFAVYYCQQFTTSTWTFGGGTKLEIK |  |  |  | + | + | − |
| G2.760: anti-ABCG2 monoclonal antibody (antibody, V domains shown) VH: EVQLVESGGGLVQPGRSMKLSCAASGFTFSKSDMAWVRQAPTKGLKWVASIRYDGGNTYYRDSVRGRFTISRDNAKSTLYLQMDSLRSEDTATYYCSTAKAAISTPSYYVLDAWGQGASVTVSS VL: DIGMTQSPTSMSKSVGDRVTMNCKASQNVGSNVDWFQQKTGQSPKLLIYKSSNRYTGVPARFTGSGSGTDFTFTISNMQAEDLAVYYCMQSNSYPPTFGGGTKLELK |  | good binding affinity | good binding affinity |  |  |  |
| G2.748: anti-ABCG2 monoclonal antibody (antibody, V domains shown) VH: QVSLKESGPGMLQPSKTLSLTCSFSGFSLSTSGMVVNWIRQPSGKSLEWLAAIDWDGDKYYNPSLKHRLTVSKDTSNTQVVLKITSVDTADTATYYCARSIAPYRGWFGYWGQGTLVTVSS VL: EIVLIQSPSSLPASLGERVTIICRASQDIGNNLNWYQQKPDGTIKPLIYFTSNFQSGVPSSFSGSRSGTDFSLTISSLEAEDFAMYYCQQDASLPWTFGGGTKLEIK |  | good binding affinity | good binding affinity |  |  |  |
